Results reported in patent publication US20110274696A1 (Amgen, published 2011).
Values joined by “and” are separate entries in the source; they are usually repeats but may differ in a detail not shown here. Equal entries are not always repeated. Where no end group is shown, it is not given here.

Key:
human CCR2 [1] = target: T1, human CCR2 (human, UniProt P41597-2 1-360); assay: cell-based or functional assay
T1 sequence: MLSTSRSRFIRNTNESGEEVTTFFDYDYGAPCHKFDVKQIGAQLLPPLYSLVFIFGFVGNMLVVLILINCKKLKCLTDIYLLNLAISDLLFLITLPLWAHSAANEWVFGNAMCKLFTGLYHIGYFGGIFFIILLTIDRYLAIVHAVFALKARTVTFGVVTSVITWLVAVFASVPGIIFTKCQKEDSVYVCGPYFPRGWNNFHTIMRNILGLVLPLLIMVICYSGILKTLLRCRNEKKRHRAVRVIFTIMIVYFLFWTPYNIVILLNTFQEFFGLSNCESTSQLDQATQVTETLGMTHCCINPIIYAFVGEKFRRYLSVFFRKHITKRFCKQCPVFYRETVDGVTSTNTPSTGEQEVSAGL

human CCR2 [2] = target: T1, human CCR2; assay: cell-based or functional assay; remark: listed apart in the source
[3] = target: T2, biotinylated CCR2 loop 2 peptide (human, biotinylated (position not given)); assay: peptide ELISA, biotinylated peptide on NeutrAvidin plate
T2 construct: Synthetic peptide (AnaSpec) captured on a NeutrAvidin plate; also called second extracellular loop peptide
T2 peptide: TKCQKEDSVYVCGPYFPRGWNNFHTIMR
Description: (§1) In addition, epitope binding to the first and/or second loop of CCR2 was also assessed using a peptide ELISA. A Reacti-Bind NEUTRAVIDIN™ Coated, High Binding Capacity ELISA plate (Pierce; Rockford, Ill.) was washed 3× with PBS/0.05% Tween20 and then coated with 100 ul/well of 6 ug/ml biotinylated CCR2 loop 2 (SEQ ID NO:129) or loop 3 (SEQ ID NO:130) peptide (AnaSpec; San Jose, Calif.). The plate was incubated for 1 hour and then washed 3×. The CCR2 antagonist antibody 4.40.3 A68G S230P or other primary antibody, diluted in PBS/0.1% BSA/0.05% Tween20, was then added to the plate in serial dilution and incubated for 1 hour, as were other controls. The plate was washed 3× and 100 ul/well HRP-Mouse anti-Human IgG4 secondary antibody (Zymed; So. San Francisco, Calif.) was added to all the wells at 1:5000 dilution and incubated for 1 hour. The plate was washed 3× and TMB substrate was added to all the wells and incubated for ˜30 minutes. The color reaction was stopped with 2M H₂SO₄ and the absorbance reading was measured on a plate reader at […] (FIG. 8).

[4] = target: T3, biotinylated CCR2 loop 3 peptide (human, also: biotinylated, position not given here); assay: peptide ELISA
T3 construct: Synthetic peptide (AnaSpec) captured on a NeutrAvidin plate; also called third loop
T3 peptide: QEFFGLSNCESTSQLDQ
Description: as §1

[5] = target: T3, biotinylated CCR2 loop 3 peptide; assay: capture ELISA, biotinylated CCR2 loop 3 peptide on a NeutrAvidin plate, HRP anti-human IgG4, absorbance at 450 nm
Description: as §1

[6] = target: T2, biotinylated CCR2 loop 2 peptide; assay: capture ELISA, biotinylated CCR2 loop 2 peptide on a NeutrAvidin plate, HRP anti-human IgG4, absorbance at 450 nm
Description: as §1

CCR5 = target: T4, CCR5 (human, UniProt P51681 1-352); assay: FACS, AF-488 conjugated antibody on 300-19 cells expressing recombinant CCR5
T4 construct: also called recombinant CCR5; human CCR5
T4 sequence (P51681 whole entry): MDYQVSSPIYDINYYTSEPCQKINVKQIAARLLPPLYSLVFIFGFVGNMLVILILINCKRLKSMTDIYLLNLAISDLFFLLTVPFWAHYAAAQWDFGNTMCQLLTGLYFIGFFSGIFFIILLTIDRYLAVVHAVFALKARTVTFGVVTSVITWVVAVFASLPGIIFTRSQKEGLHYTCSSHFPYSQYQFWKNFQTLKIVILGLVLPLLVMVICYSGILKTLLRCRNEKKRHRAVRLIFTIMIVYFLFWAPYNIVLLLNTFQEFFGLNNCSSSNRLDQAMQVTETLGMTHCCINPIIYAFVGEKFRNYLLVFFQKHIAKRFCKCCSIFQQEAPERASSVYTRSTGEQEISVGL
Description: The selectivity of the 4.40 A68G S230P antibody for human CCR2 was confirmed by the absence of binding to a closely related chemokine receptor, CCR5, as shown in FIG. 9 and by the lack of inhibition of chemotaxis induced by the CCR5/CCR1 ligand MIP-1a (FIG. 3). […] For these studies, 300.19 cells engineered to express CCR5 were incubated with either the CCR2 selective antibody, 4.40 A68G S230P, or the CCR5-selective antibody for 30 minutes. Cells were then washed in FACS buffer (0.02% sodium azide, 2% heat inactivated fetal bovine serum in PBS) and analyzed for cell surface expression using a flow cytometer using standard methods.

[7] = target: T5, RMMR chimeric receptor (N-terminus and 3rd loop of CCR1; 1st and 2nd loops of CCR2), FLAG-tagged; assay: FACS saturation binding on RMMR chimera transfected 300-19 cells
T5 construct: also called 1st and 2nd loops of CCR2 (RMMR)
Description: (§2) Fifteen minutes later, a secondary detection antibody, R-Phycoerythrin conjugated Affini-pure F(ab′) fragment Donkey anti-human IgG H+L (Jackson 709-116-149), was added. Tubes were gently shaken for 3 hours at room temperature. After 2 washes in buffer, cells were resuspended in 500 ul of buffer and assessed on a FACS CALIBUR™. A total of 10,000 events per tube were assessed. The mean channel fluorescent intensity was assessed for each concentration of antibody as an indicator for the magnitude of staining.
(§3) Binding of antibodies to the CCR2/CCR1 chimeric receptors was assessed using FACS analysis. All receptors were tagged at the N-terminus with FLAG and also stained with the anti-FLAG antibody M1 such that receptor expression could be confirmed. FIGS. 6A & B illustrate the FACS staining of FLAG on the N-terminus with M1 antibody (FIG. 6A) as compared to the staining of 4.40 (FIG. 6B). FIG. 6C illustrates a saturation binding curve of the 4.40 A68G S230P antibody on RMMR chimera transfected 300-19 cells.

human CCR2 [8] = target: T1, human CCR2; assay: FACS saturation binding, 3 hour assay, 300-19 cells expressing human CCR2; full-length human CCR2 on transfected 300-19 cells, not the chimera; KD in ug/mL
Description: as §2, with “Briefly, using a buffer of Dulbecco's Phosphate Buffered Saline containing 2% heat inactivated Fetal Bovine Serum, 0.002% Sodium Azide and 0.005 mg/ml Cytochalasin-B (Sigma 6762), 1 million cells in a volume of 100 ul were stained with the test antibody. Fifteen” for “Fifteen”

[9] = target: T5, RMMR chimeric receptor (N-terminus and …); assay: FACS saturation binding on 300-19 cells expressing the chimera with the first and second extracellular loops of CCR2 (FIG. 6C)
Description: as §2, §3

human CCR2 [10] = target: T1, human CCR2; assay: FACS saturation binding (3 hour assay) on CCR2 transfected 300-19 cells, PE anti-human IgG detection
Description: as §2, with “Briefly, using a buffer of Dulbecco's Phosphate Buffered Saline containing 2% heat inactivated Fetal Bovine Serum, 0.002% Sodium Azide and 0.005 mg/ml Cytochalasin-B (Sigma 6762), 1 million cells in a volume of 100 ul were stained with the test antibody. Fifteen” for “Fifteen”

human CCR2 [11] = target: T1, human CCR2; assay: cell-based or functional assay; remark: listed apart in the source
cynomolgus monkey CCR2 = cynomolgus monkey CCR2 (cynomolgus monkey); assay: cell-based or functional assay

B1: anti-CCR2 monoclonal antibody 4.39.3 (antibody, human IgG4, kappa, V domains shown)
VH: QVQLVQSGAEVKKPGASVKVSCKASGYTFTSYYIHWVRQAPGQGLEWMGMINPSGGPTSYAQKFQGRVTMTRDTSTSTVYMDLSSLRSEDTAVFYCARERWYKWNFDAFDIWGQGTMVTVSS
VL: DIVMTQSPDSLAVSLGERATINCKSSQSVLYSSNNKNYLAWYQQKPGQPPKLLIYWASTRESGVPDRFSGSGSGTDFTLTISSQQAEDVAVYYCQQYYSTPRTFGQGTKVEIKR
**Q.** Which results are given for B1?
**A.** Inhibition of MCP-1-induced THP-1 Chemotaxis, IC50 (human CCR2 [1]): 0.139 µg/mL; Chemotaxis IC50 (human CCR2 [2]): 0.139 µg/mL

B2: anti-CCR2 monoclonal antibody 4.40 (antibody, V domains shown)
VH: QVQLVESGGGVVQPGRSLRLSCAASGLTFSSYGMHWVRQAPGKGLEWVAVILYDGKNKYYADSVKGRFTISRDNSKNTLYLQMNSLRAEDTAVYYCARDQAYWTYFDAFDIWGQGTMVTVSS
VL: EIVLTQSPDFQSVTPKEKVTITCRASQSIGSSLHWYQQKPDQSPKLLIKYASQSFSGVPSRFSGSGSATDFTLTINSLEAEDAATYYCHQSSSLPLTFGGGTKVEIKR
notes: Hybridoma clone from IgG4 XenoMouse mice; Variable domains were also cloned into IgG1, IgG2 and IgG4 formats; also called 4.40.2; 4.40.3
**Q.** Does B2 bind [3]?
**A.** binds

**Q.** And the “Inhibition of MCP-1-induced THP-1 Chemotaxis, IC50” value (human CCR2 [1])?
**A.** 0.137 µg/mL

**Q.** Does B2 bind [4]?
**A.** no binding

**Q.** And the “Chemotaxis IC50” value (human CCR2 [2])?
**A.** 0.13 µg/mL

B3: anti-CCR2 monoclonal antibody 4.9 (antibody, human IgG4, kappa, V domains shown)
VH: QVQLVESGGGVVQPGRSLRLSCAASGFTFSSYGMHWVRQAPGKGLEWVAVQTYDGRNKYYADSVKGRFTISRDNSKKTLYLQMNRLRAEDTAVYYCARDQAYWKYFDAFDIWGQGTMVTVSS
VL: DIQMTQSPSSLSTSVGDRVTITCRASQSISSYLNWYQQKPGKAPKLLIYAASSLQSGVPSRFSGSGSGTDFTLTISSLQPEDFATYYCQQSYNSPCSFGQGTKLEIKR
notes: Hybridoma clone from IgG4 XenoMouse mice; also called 4.9.2; 4.9.3
**Q.** Does B3 bind [3]?
**A.** binds

**Q.** And the “Inhibition of MCP-1-induced THP-1 Chemotaxis, IC50” value (human CCR2 [1])?
**A.** 0.198 µg/mL

**Q.** Does B3 bind [4]?
**A.** no binding

**Q.** And the “Chemotaxis IC50” value (human CCR2 [2])?
**A.** 0.198 µg/mL

B4: anti-CCR2 antibody 4.40 A68G S230P (antibody, human IgG4 S228P, kappa, V domains shown)
VH: QVQLVESGGGVVQPGRSLRLSCAASGLTFSSYGMHWVRQAPGKGLEWVAVILYDGKNKYYADSVKGRFTISRDNSKNTLYLQMNSLRAEDTAVYYCARDQAYWTYFDAFDIWGQGTMVTVSS
VL: EIVLTQSPDFQSVTPKEKVTITCRASQSIGSSLHWYQQKPDQSPKLLIKYASQSFSGVPSRFSGSGSGTDFTLTINSLEAEDAATYYCHQSSSLPLTFGGGTKVEIKR
notes: Recombinant human IgG4 with the hinge mutation S230P (heavy chain) and the germline reversion A68G (light chain) of 4.40; also called 4.40.3 A68G S230P; 4.40.2 A68G S230P
**Q.** Does B4 bind [5]?
**A.** no binding (tested: about 6 ug/ml)

**Q.** Does B4 bind [6]?
**A.** binds

**Q.** Does B4 bind (CCR5)?
**A.** no binding

**Q.** What about the “EC50 (read off the curve)” value [7] of the same binder?
**A.** ~0.05 µg/mL

**Q.** What about the Kd [7] of the same binder?
**A.** 0.0226 µg/mL

**Q.** And the Kd (human CCR2 [8])?
**A.** 0.085 µg/mL

**Q.** What about the Kd [9] of the same binder?
**A.** 0.023 µg/mL and 0.16 nM

**Q.** And the “EC50 (read off the curve)” value (human CCR2 [10])?
**A.** ~0.08 µg/mL

**Q.** And the Kd (human CCR2 [10])?
**A.** 0.0849 µg/mL

**Q.** What about the “inhibition of MCP-1 induced actin polymerization in monocytes, human whole blood, IC50” value (human CCR2 [11]) of the same binder?
**A.** 0.168 µg/mL

**Q.** And the “inhibition of MCP-1 induced pERK phosphorylation in human whole blood, IC50” value (human CCR2 [11])?
**A.** 0.44 µg/mL and 2.9 nM

**Q.** What about the “inhibition of chemotaxis of THP-1 monocytes in response to MCP-1, IC50” value (human CCR2 [11]) of the same binder?
**A.** 0.148 µg/mL

**Q.** What about the “inhibition of collagen IAI mRNA synthesis in LI90 cells induced by MCP-1, IC50” value (human CCR2 [11]) of the same binder?
**A.** 0.89 µg/mL and 6.2 nM

**Q.** And the “inhibition of MCP-1 induced whole blood actin polymerization in the cynomolgus monkey, IC50” value (cynomolgus monkey CCR2)?
**A.** 0.49 µg/mL
